Data from US20080044414A1 (published 2008).
Where a chain is given by its changes, count along the chain named. Where “and” joins values, the source holds several entries; their conditions need not be identical. Equal entries are not always repeated. Where two headings read alike, the source gives them in different places. Each block holds one binder with its values, some of them ahead of it.

Tests used:
human IL-1β [1] = biological target: T1, human IL-1β (human, UniProt P01584 117-269); assay: cell-based or functional assay
human IL-1β [2] = biological target: T1, human IL-1β; assay: cell-based or functional assay; remark: listed apart in the source
human IL-1β [3] = biological target: T1, human IL-1β; assay: KinExA kinetic exclusion assay
Description: KD values represent the binding dissociation constants for the respective antibody-IL-1β complexes. KD was calculated as the ratio of “off rate” (rate of dissociation for the antibody-IL-1β complex) to “on rate” (rate of association for the antibody-IL-1β complex).

human IL-1β [4] = biological target: T1, human IL-1β; assay: KinExA kinetic exclusion assay; remark: listed apart in the source
Excerpt: The KINEXA™ device performs a kinetic exclusion assay, and fits the data to various theoretical curves and thus determines KD as well as other properties, such as 95% confidence intervals for KD. The KINEXA™ device is generally more sensitive than other devices (e.g., a BiaCore device) for analysis of affinity characteristics such as dissociation constants and off-rates.

human IL-1β [5] = biological target: T1, human IL-1β; assay: cell-based or functional assay; remark: listed apart in the source
rhesus macaque IL-1β = biological target: T2, rhesus macaque IL-1β (rhesus macaque, UniProt P48090 117-269); assay: cell-based or functional assay
T2 sequence (looked up): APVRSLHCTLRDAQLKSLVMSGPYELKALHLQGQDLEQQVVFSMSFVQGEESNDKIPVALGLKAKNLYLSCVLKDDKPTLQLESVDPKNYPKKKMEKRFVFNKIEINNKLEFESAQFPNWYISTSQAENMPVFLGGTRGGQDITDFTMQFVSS

[6] = biological target: T3, soluble IL-1 receptor type I (IL-1 sRI) (UniProt P14778 18-336); assay: Biacore, AB7 immobilized on CM-5 chip, IL-1 sRI injected
T3 construct: extracellular domain; also called IL-1RI
T3 sequence (looked up): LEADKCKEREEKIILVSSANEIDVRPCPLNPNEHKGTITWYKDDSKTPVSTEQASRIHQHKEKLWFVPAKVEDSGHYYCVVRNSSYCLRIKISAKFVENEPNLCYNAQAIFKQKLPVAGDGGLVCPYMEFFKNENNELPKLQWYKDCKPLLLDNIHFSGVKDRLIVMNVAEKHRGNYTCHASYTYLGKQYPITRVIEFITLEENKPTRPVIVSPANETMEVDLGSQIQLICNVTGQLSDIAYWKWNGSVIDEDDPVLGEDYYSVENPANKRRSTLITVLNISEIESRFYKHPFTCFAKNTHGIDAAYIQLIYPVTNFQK
Description: Using HBS-EP (Biacore®, Inc.) as running buffer, the temperature was set to 25° C., the flow rate was set to 10 μL/min, and the flow path was directed to flow cell 2 only. 135 μL of each of NHS and ECD solutions (Biacore®, Inc.) were mixed, and 70 μL of the NHS/ECD solution was immediately injected in the flow path. […] To prepare a reference surface, the flow path was changed to flow cell 1 only. 135 μL of each of NHS and ECD solutions (Biacore®, Inc.) were mixed, and 70 μL of the NHS/ECD solution was immediately injected in the flow path, followed by 70 μL 1M Ethanolamine (Biacore®, Inc.).
The flow rate was set to 10 μL/min. The flow path for the Biacore® instrument was set to flow cells 1 and 2, and reference subtraction of flowcell 2 from flowcell 1 was used to determine a response differential.

guinea pig IL-1β = biological target: T4, guinea pig IL-1β (guinea pig, UniProt Q9WVG1 115-266, limits assumed); assay: immunoprecipitation with AB7 and protein A-Sepharose from PBMC supernatant, Western blot with AB7
T4 sequence (looked up): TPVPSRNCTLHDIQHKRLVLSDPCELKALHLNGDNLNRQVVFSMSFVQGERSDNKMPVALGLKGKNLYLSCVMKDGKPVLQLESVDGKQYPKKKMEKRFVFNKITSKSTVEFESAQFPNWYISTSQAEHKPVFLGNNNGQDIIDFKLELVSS
Description: (§1) Fresh heparanized whole blood from rhesus macaque, cynomolgus monkey, dog, guinea pig and rabbit was obtained from Charles River Labs. The whole blood was separated by Ficoll density gradient centrifugation and peripheral blood mononuclear cells (PBMC's) were isolated. For each species' PBMC, 2.5×10⁵ cells/ml were incubated in peripheral RPMI media with and without 50 ng/ml Lipopolysaccharide LPS (E. Coli 055:B5), and supernatants were collected at 24 hours post-stimulation. LPS is intended to stimulate the production of IL-1β by the PBMC's. […] Human IL-1β (Peprotech) was spiked into RPMI and run as immunoprecipliation/Western blot controls. After centrifugation and washing of the Protein A-Sepharose beads, all samples were loaded onto a SDS-PAGE gel and run at 120V for 1 hour. […] A secondary goat anti-human IgG antibody conjugated with horseradish peroxidase (HRP) was added following wash steps and detection was with one step tetramethyl benzidine (TMB) solution.

dog IL-1β = biological target: T5, dog IL-1β (dog, UniProt Q28292 115-266); assay: immunoprecipitation with AB7 from LPS-stimulated PBMC supernatant, Western blot with AB7 (FIG. 16)
T5 sequence (looked up): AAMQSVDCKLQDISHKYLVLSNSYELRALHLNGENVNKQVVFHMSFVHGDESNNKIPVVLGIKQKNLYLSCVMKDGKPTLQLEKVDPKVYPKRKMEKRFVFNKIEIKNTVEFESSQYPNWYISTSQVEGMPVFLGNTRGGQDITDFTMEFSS
Description: as §1

rabbit IL-1β = biological target: T6, rabbit IL-1β (rabbit, UniProt P14628 117-268); assay: as above
T6 sequence (looked up): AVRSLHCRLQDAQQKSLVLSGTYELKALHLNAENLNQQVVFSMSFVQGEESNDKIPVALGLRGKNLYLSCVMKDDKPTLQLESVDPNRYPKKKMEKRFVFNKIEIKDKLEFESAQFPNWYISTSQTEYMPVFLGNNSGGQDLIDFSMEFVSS
Description: as §1

B1: AB5 (antibody, V domains shown)
VH: QVTLKESGPGILKPSQTLSLTCSFSGFSLSTSGMGVGWIRQPSGKGLEWLAHIWWDGDESYNPSLKTQLTISKDTSRNQVFLKITSVDTVDTATYFCARNRYDPPWFVDWGQGTLVTVSS
VL: DIQMTQTTSSLSASLGDRVTISCRASQDISNYLSWYQQKPDGTVKLLIYYTSKLHSGVPSRFSGSGSGTDYSLTISNLEQEDIATYFCLQGKMLPWTFGGGTKLEIK
notes: also called AB5 (invention)
IC50, inhibition of IL-1β stimulated release of IL-6 from human MRC5 fibroblasts (human IL-1β [1]): 0.014 nM
IC50, inhibition of IL-1β stimulated release of IL-6 from human fibroblasts (human IL-1β [2]): 0.0049 nM
Kd (human IL-1β [3]): 0.000261 nM
Kd (human IL-1β [4]): 0.00024 nM

B2: AB2 (antibody, V domains shown)
VH: B1 VH with N100V
VL: B1 VL
IC50, inhibition of IL-1β stimulated release of IL-6 from human fibroblasts (FIG. 10) (human IL-1β [5]): 0.076 nM

B5: AB1 (antibody, V domains shown)
VH: B1 VH with N100A
VL: B1 VL
notes: also called AB1 (invention)
IC50, inhibition of IL-1β stimulated release of IL-6 from human fibroblasts (FIG. 10) (human IL-1β [5]): 0.029 nM
IC50 of an individual assay, IL-6 release from human fibroblasts (human IL-1β [5]): 0.035 nM and 0.03 nM and 0.052 nM
mean IC50, inhibition of IL-1β stimulated release of IL-6 from human fibroblasts (human IL-1β [5]): 0.0667 nM
IC50, inhibition of IL-1β stimulated release of IL-6 from human MRC5 fibroblasts (human IL-1β [1]): 0.15 nM
Kd (human IL-1β [3]): 0.0186 nM

Other lines, results leading:

IC50, inhibition of IL-1β stimulated release of IL-6 from human fibroblasts (FIG. 10) (human IL-1β [5]): 0.214 nM
B3: AB3 (antibody, V domains shown)
VH: B1 VH with N100F
VL: B1 VL

IC50 of an individual assay, IL-6 release from human fibroblasts (human IL-1β [5]): 0.005 nM and 0.0049 nM
mean IC50, inhibition of IL-1β stimulated release of IL-6 from human fibroblasts (human IL-1β [5]): 0.0089 nM
IC50, inhibition of IL-1β stimulated release of IL-6 from human MRC5 fibroblasts (human IL-1β [1]): 0.017 nM
Kd (human IL-1β [3]): 0.00306 nM
B4: AB-control (antibody, V domains shown)
VH: B1 VH with Q68R, D74N, S86T
VL: B1 VL with S72F
notes: must be checked against the listing

mean IC50, inhibition of IL-1β stimulated proliferation of D10.G4.1 cells (10 pg/ml recombinant rhesus IL-1β) (rhesus macaque IL-1β): 0.0027 nM
binding result [6]: no binding (tested: 10 ug/mL)
binding result (guinea pig IL-1β): no binding
binding result (dog IL-1β): binds
binding result (rabbit IL-1β): binds
B6: AB7 (antibody, V domains shown)
VH: QVQLQESGPGLVKPSQTLSLTCSFSGFSLSTSGMGVGWIRQPSGKGLEWLAHIWWDGDESYNPSLKSRLTISKDTSKNQVSLKITSVTAADTAVYFCARNRYDPPWFVDWGQGTLVTVSS
VL: DIQMTQSTSSLSASVGDRVTITCRASQDISNYLSWYQQKPGKAVKLLIYYTSKLHSGVPSRFSGSGSGTDYTLTISSLQQEDFATYFCLQGKMLPWTFGQGTKLEIK
notes: Human engineered antibody
